# Article PMC8828441
# Biological target: ADDomer-SpyTag (human adenovirus type 3)
# Assay: covalent SpyTag/SpyCatcher adduct on SDS-PAGE
substance,measurement,value
SpyCatcher,stoichiometry N (copies per particle),60
